Measurements: patent US20210269545A1
pEC50: −log10 of the molar value.

Assays:
[1] = target: CD38 on cells (human) (UniProt P28907); assay: flow cytometry, Raji cells expressing CD19 and CD38
[2] = target: CD38 on cells (human) (UniProt P28907); assay: flow cytometry, Raji cells; adjusted fit with the top asymptote fixed at about the maximum response of Darzalex
[3] = target: CD38 on cells (human) (UniProt P28907); assay: flow cytometry, Raji cells expressing CD19 and CD38; remark: listed apart in the source
[4] = target: CD19 on cells (human) (UniProt P15391); assay: flow cytometry, Raji cells expressing CD19 and CD38 (negative control)
Chain of CD19 on cells (human) (P15391 20-556): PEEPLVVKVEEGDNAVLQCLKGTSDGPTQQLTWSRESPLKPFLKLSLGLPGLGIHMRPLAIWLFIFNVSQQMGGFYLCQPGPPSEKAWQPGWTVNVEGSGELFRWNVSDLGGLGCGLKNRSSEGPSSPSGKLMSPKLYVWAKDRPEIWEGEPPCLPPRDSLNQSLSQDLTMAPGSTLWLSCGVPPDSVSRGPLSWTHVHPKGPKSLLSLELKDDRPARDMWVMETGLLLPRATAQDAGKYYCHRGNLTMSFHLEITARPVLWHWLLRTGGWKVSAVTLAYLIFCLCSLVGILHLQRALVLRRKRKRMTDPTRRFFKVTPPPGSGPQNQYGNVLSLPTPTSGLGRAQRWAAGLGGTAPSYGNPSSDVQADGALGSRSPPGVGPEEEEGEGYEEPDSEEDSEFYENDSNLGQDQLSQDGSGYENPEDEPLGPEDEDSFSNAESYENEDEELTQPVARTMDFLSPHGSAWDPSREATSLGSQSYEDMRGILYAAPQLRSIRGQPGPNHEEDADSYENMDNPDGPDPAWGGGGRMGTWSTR

[5] = target: CD38 on cells (human) (UniProt P28907); assay: as above

| pEC50 [1] | pEC50 [2] | EC50 [3] [µg/mL] | Max MFI [3] [MFI] | EC50 [4] [µg/mL] | Max MFI [4] [MFI] | EC50 [5] [µg/mL] | Max MFI [5] [MFI] | Substance |
| --- | --- | --- | --- | --- | --- | --- | --- | --- |
| 8.90 | 8.90 | 0.195 | 4.02e+06 | – | – | – | – | Darzalex (antibody) |
| – | – | – | – | 4620 | 38700 | 4620 | 38700 | IgG1 isotype control (antibody) |
